The test has as its target T1, Toll-like receptor 4 (TLR4) of mouse bone marrow-derived dendritic cells (mouse, UniProt Q9QUK6 26-835).
T1 construct: whole, on cells; also called TLR (toll-like receptor)-4
T1 sequence: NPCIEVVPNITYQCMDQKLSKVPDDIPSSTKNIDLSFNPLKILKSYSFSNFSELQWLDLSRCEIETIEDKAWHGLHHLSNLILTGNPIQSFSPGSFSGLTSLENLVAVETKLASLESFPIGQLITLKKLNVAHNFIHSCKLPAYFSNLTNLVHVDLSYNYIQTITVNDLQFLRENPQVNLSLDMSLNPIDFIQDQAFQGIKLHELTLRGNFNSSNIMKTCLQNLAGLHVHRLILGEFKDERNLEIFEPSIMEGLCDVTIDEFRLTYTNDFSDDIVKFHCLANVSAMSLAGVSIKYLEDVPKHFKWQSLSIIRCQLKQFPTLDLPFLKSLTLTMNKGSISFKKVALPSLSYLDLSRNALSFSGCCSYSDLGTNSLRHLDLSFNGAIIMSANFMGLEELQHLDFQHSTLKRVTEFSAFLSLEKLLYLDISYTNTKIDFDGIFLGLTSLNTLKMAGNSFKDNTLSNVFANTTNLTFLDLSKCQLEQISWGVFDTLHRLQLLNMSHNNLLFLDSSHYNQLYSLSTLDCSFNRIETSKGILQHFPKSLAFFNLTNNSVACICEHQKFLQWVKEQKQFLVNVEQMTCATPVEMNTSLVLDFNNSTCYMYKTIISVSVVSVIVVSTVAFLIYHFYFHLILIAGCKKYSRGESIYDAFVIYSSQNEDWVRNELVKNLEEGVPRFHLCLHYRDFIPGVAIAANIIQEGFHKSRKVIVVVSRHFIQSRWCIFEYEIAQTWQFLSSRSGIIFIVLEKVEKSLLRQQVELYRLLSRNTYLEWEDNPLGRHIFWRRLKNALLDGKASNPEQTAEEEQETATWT
The test is described as follows: figure legend for FIGS. 3D-3F: confocal microscopy, FACS and immunoprecipitation.

This is an account of results in US11414646 (QURATIS, dated 2022).

B1: Recombinant Rv2299c protein (His-tagged, Mycobacterium tuberculosis H37Rv, expressed in E. coli BL21) (ligand)
chain: MNAHVEQLEFQAEARQLLDLMVHSVYSNKDAFLRELISNASDALDKLRIEALRNKDLEVDTSDLHIEIDADKAARTLTVRDNGIGMAREEVVDLIGTLAKSGTAELRAQLREAKNAAASEELIGQFGIGFYSSFMVADKVQLLTRKAGESAATRWESSGEGTYTIESVEDAPQGTSVTLHLKPEDAEDDLHDYTSEWKIRNLVKKYSDFIAWPIRMDVERRTPASQEEGGEGGEETVTIETETLNSMKALWARPKEEVSEQEYKEFYKHVAHAWDDPLEIIAMKAEGTFEYQALLFIPSHAPFDLFDRDAHVGIQLYVKRVFIMGDCDQLMPEYLRFVKGVVDAQDMSLNVSREILQQDRQIKAIRRRLTKKVLSTIKDVQSSRPEDYRTFWTQFGRVLKEGLLSDIDNRETLLGISSFVSTYSEEEPTTLAEYVERMKDGQQQIFYATGETRQQLLKSPHLEAFKAKGYEVLLLTDPVDEVWVGMVPEFDGKPLQSVAKGEVDLSSEEDTSEAEREERQKEFADLLTWLQETLSDHVKEVRLSTRLTESPACLITDAFGMTPALARIYRASGQEVPVGKRILELNPSHPLVTGLRQAHQDRADDAEKSLAETAELLYGTALLAEGGALEDPARFAELLAERLARTL
notes: also called Rv2299c (His); HSP90 family protein
B1: the binding result is given as “binds”.
